Values of other authors as cited in article PMC10094977.

Tests used:
[1] = molecular target: Cav1.2 IQ domain IQ (UniProt Q13936); assay: isothermal titration calorimetry
[2] = molecular target: Cav1.2 alpha1C IQ domain 1611-1644 (Homo sapiens) (UniProt Q13936); assay: isothermal titration calorimetry
Chain of Cav1.2 alpha1C IQ domain 1611-1644 (Homo sapiens) (Q13936 1611-1644): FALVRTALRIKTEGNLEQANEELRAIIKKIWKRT

Chain of Cav1.2 IQ domain IQ (Q13936 1665-1685): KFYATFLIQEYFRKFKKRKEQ

| Substance | Kd [1] [nM] | Kd [2] [nM] |
| --- | --- | --- |
| Ca2+/calmodulin C-lobe C-lobe (from UniProt P0DP23) | 2 | – |
| Calmodulin C-lobe (from UniProt P0DP23) | – | 2 |
